Series [1] concerns the molecule itself. The series is described as follows: SEC; gel filtration on HiLoad 16/600 Superdex 200 pg, in the presence of 2 mM Mg2+.
Series [2] deals with the molecule itself. The series can be described thus: crystal structure; X-ray, 1.75 Å, space group P212121, one dimer in the asymmetric unit; SeMet crystals from 0.2 M Li2SO4 and 20% PEG 3350, 25 °C.

B1: Ketol-acid reductoisomerase from Sulfolobus acidocaldarius (Sac-KARI), His-tagged recombinant (enzyme)
chain: MAKIYTDKDVSLDVIKEKRVAVLGYGSQGRAWALNLRDSGIKVSVGLEREGNSWKQAENDGFKPLRTEEAVRNSDIIIFLLPDMIQRTVYLERVKPYLKEGMDLVFAHGFNIHYRLIEPPSNVDVYMIAPKAPGPIVREYFAKGGGVPALVATYQDHSGKALQKALAVAKAIGATRAGVIETTFKEETETDLFGEQVDLVGGVMQLMRYAFQTLVEAGYQPEVAYFETINEMKLIVDLVYEKGFSGMLTAVSDTAKYGGMTVGKMVIDESVKERMKKALDNIRSGKFAEKWVEEYGKGANTIKEGMKEVDNSTEEKVGRSLRDIILRGKPKS
notes: pET-21a cloned through NdeI/XhoI with the His-tag coding region kept would give a C-terminal His6 tag (surmised); No tag cleavage is described; also called ilvc1559; source: E. coli BL21 (DE3), purified (heating at 65 °C for 30 min, Ni-NTA, gel filtration)
As a reminder, the stoichiometry N is the number of molecules, sites or subunits per partner or assembly. Regarding B1, the “stoichiometry N” value in series [1] was found to be 2.

B2: SeMet-substituted Sac-KARI (ketol-acid reductoisomerase from Sulfolobus acidocaldarius) (enzyme)
chain: MAKIYTDKDVSLDVIKEKRVAVLGYGSQGRAWALNLRDSGIKVSVGLEREGNSWKQAENDGFKPLRTEEAVRNSDIIIFLLPDMIQRTVYLERVKPYLKEGMDLVFAHGFNIHYRLIEPPSNVDVYMIAPKAPGPIVREYFAKGGGVPALVATYQDHSGKALQKALAVAKAIGATRAGVIETTFKEETETDLFGEQVDLVGGVMQLMRYAFQTLVEAGYQPEVAYFETINEMKLIVDLVYEKGFSGMLTAVSDTAKYGGMTVGKMVIDESVKERMKKALDNIRSGKFAEKWVEEYGKGANTIKEGMKEVDNSTEEKVGRSLRDIILRGKPKS
modifications: selenomethionine in place of methionine (SeMet-substituted)
notes: Ketol-acid reductoisomerase (class I KARI) of Sulfolobus acidocaldarius, gene ilvc1559, same pET21a-ilvc construct as m1, expressed with selenomethionine; also called SeMet-containing Sac-KARI; source: Overnight Express Autoinduction System 2 (Novagen) with L-methionine and SeMet; purified as the native protein (heating, Ni-NTA, gel filtration)
B2: in series [2], the binding result is on record as “binds”.

The record behind these values is paper PMC5940873, “NADH/NADPH bi-cofactor-utilizing and thermoactive ketol-acid reductoisomerase from Sulfolobus acidocaldarius” (Scientific Reports, 2018).
